Laboratory results from patent EP1922329B1.

Target: human rhinovirus serotype HRV-39
Test: cell-based or functional assay

Which results are given for “IC1-5D/IgA (ICAM/IgA fusion, gift of Dr. Tim Springer; Martin, et al., 1993) (Fc fusion)”?
IC50, CPE assay: 0.12 mg/L; fold lower IC50 than soluble ICAM-1, CPE assay: 11.3 fold

For “soluble ICAM-1 (from UniProt P05362 28-480) (receptor)”, which IC50, CPE assay is on record?
The IC50, CPE assay was 1.35 mg/L.
